# Laboratory results: the DeepSol protein solubility set
# Experiment: soluble on expression in E. coli; label from the status in PepcDB or PDB records
row,Sequence,soluble on expression in E. coli
1,MDHLDDLVDLYEYRVEDLLQGRTPKGGKQALLRLRQLLIQSRLPGPLAKRFRQADARFRAQRRALAPEAQAPVELPAIAVPEEPEPPPPEASPLAALALKVWRLQVERDVKARLEALLAGRREELRLIHAFLDNFALYRETPGFKRDFNLSRFVPTRPIPSLSDTLVDLDDPKVAQALVVDFLETARELPKLLPLPPEETRTYVRRFLNRLLEWEGAYNLPPKPDLPALRRALEEARRLGAGEKEVAQLEERLRKAAQEARRRDLLLEEEKGRFRVALEKVVALLSLLPTPQGETPWPRVPEPGQEEEGLLTLRLAPGPVALGPLTLTLSHAGGTWYLGLEGEDHPLEDTLVLPWEDLEVWAVRENDLLHLRLEARSGLRLYELLAEGRLLAYLLHPGKDYAYLRLLRGLSTRLKGEFQAQAFGPALAEKYRKAPEEALQDFARKGLELTLKRLGQADPLPLLQEVGQALGLEAEAQTLGQALREYLGRRPPTRETLGGEVHFLALTPEPQALKLDQHVLSVRLKEDAVYLGQAGEVPRRLKDLLVYRLGERALVLAREGRRLAYTLLPLP,soluble
2,MDIEERINLVLKKPTEEVLTVENLRHLFEIGAPLQHYIGFEISGYIHLGTGLMAGAKIADFQKAGIKTRVFLADWHSWINDKLGGDLEVIQEVALKYFKVGMEKSIEVMGGDPKKVEFVLASEILEKGDYWQTVIDISKNVTLSRVMRSITIMGRQMGEAIDFAKLIYPMMQVADIFYQGVTIAHAGMDQRKAHVIAIEVAQKLRYHPIVHEGEKLKPVAVHHHLLLGLQEPPKWPIESEEEFKEIKAQMKMSKSKPYSAVFIHDSPEEIRQKLRKAFCPAREVRYNPVLDWVEYIIFREEPTEFTVHRPAKFGGDVTYTTFEELKRDFAEGKLHPLDLKNAVAEYLINLLEPIRRYFEKHPEPLELMRSVKITR,soluble
3,MDIIERITKLKNEKNAVILAHNYQPEEIQKIADIIGDSLELCIAARDTDADVIVFCGVDFMAETAKVLNSGKKVLIPEIIETDCPMAHQLPPEIILEAKKKNPDAKVVIYVNTLASAKALADATCTSANADKVVNSFEEDEILFGPDNNLGYFVSKRSNKKIIPMPEGGHCYVHKMFTLDDAKAVKEKYPNAELLIHPESDPKLQETADYVMSTGGMVKHVLNSECSEFIIGTECDMISRLKIELEKAGKSKKLIPLRTDAICKSMKNITLEKIEKCLLEEKHEIMLDEKIIENARKAIERMLSILEHHHHHH,not soluble
4,MDIRARTKIIDIYSNLKYKKPLKSFQKILTTSDSDNCEDFFNIGLNIDKNKITAIGFDGDGCIISTIATELSIKAIENKTINQAKKILSDLIATYKDKNSANQVVEELKLLIEMNVTEKRLQCLLLTPSNLLQWFKNF,not soluble
5,MDISRRNFLKSTASFGAIASLGLPGYSLAAPSNDFRALICVYLAGGNDAINTILPLSDFHYNQYANVRGSLSVAKNTIIPIRLNAHDANNNAVPLGLHPKLSALAPLFQQGDANLVLNSGILNQPVTKQAIEQGDVPLPEQLFSHNSQTASWLRGGMDASTNLGWAGRMLDVLTSDAQITPLYSVHGDTLWLKAMEHRQTVLKKDKAVQLTAVGNPLYEEVYQKLLSQSADNPFSGHFNLMVDESMMMSNILAEQLKLIDDAPLFSSSTLGKQMQTVYKLIASQSALSQQRQVFFVKHTGYDLHDSQLARHPLLLEDLATNLNAMYRAVDKLGMSKNVTTFTMSDFGRRMTNNGNGTDHGWGGHQLLIGGAVNGSAPIGTWPELTLGGQDDYSKGRLIPAIAADQVGSTLAQWMGVSDNAALEYVFPNIRNFTTSNLGFMA,not soluble
6,MDKELNPSIGDYTGRTVDTLQNAVYIRLMTPLGSWWADKTLGSLLHLLQREKDLQRVSLLAEQYADEALQPIVKSGRADKITVRAEQPHDGRLILHIRMDTAAGGFDYRHEVPVI,not soluble
7,MDKFRVQGPTKLQGEVTISGAKNAALPILFAALLAEEPVEIQNVPKLKDVDTSMKLLSQLGAKVERDGSVHIDARDVNVFCAPYDLVKTMRASIWALGPLVARFGQGQVSLPGGCTIGARPVDLHISGLEQLGATIKLEEGYVKASVDGRLKGAHIVMDKVSVGATVTIMCAATLAEGTTIIENAAREPEIVDTANFLITLGAKISGQGTDRIVIEGVERLGGGVYRVLPDRIETGTFLVAAAISRGKIICRNAQPDTLDAVLAKLRDAGADIEVGEDWISLDMHGKRPKAVNVRTAPHPAFPTDMQAQFTLLNLVAEGTGFITETVFENRFMHVPELSRMGAHAEIESNTVICHGVEKLSGAQVMATDLRASASLVLAGCIAEGTTVVDRIYHIDRGYERIEDKLRALGANIERVKGELVPR,soluble
8,MDKQIGFIGCGNMGMAMIGGMINKNIVSSNQIICSDLNTANLKNASEKYGLTTTTDNNEVAKNADILILSIKPDLYASIINEIKEIIKNDAIIVTIAAGKSIESTENAFNKKVKVVRVMPNTPALVGEGMSALCPNEMVTEKDLEDVLNIFNSFGQTEIVSEKLMDVVTSVSGSSPAYVYMIIEAMADAAVLDGMPRNQAYKFAAQAVLGSAKMVLETGIHPGELKDMVCSPGGTTIEAVATLEEKGLRTAIISAMQRCTQKSVELSGQTKKLEHHHHHH,soluble
9,MDKVKAARSLIQEALAQSQNPCFTCSFQAEDVVVLHLLLKERPEIPVLFLDTGYHFPEVYAYRDELQKRLGFRLVNLTPALSREEQERLYGKLYETDPGRCCALRKVEPLFAALEAHDTWFTGLRREQSPTRRNLEPQEEARLPSGHRLKKVNPLYDWTLKEVFAYLAVEDLPYLPLYDQGYLSIGCAPCTAKPLDPSDPRSGRWAGKGKLECGIHLHGKEG,soluble
10,MDLASNLGGKIDKSDVLTAVEKYEQYHVFHGGNEEERKANYTDMVNKYYDLATSFYEYGWGESFHFAQRWKGESLRESIKRHEHFLALQLGIQPGQKVLDVGCGIGGPLREIARFSNSVVTGLNNNEYQITRGKELNRLAGVDKTCNFVKADFMKMPFPENSFDAVYAIEATCHAPDAYGCYKEIYRVLKPGQCFAAYEWCMTDAFDPDNAEHQKIKGEIEIGDGLPDIRLTTKCLEALKQAGFEVIWEKDLAKDSPVPWYLPLDKNHFSLSSFRLTAVGRFITKNMVKILEYIRLAPQGSQRVSNFLEQAAEGLVDGGRREIFTPMYFFLARKPE,soluble
11,MDLHSGLPYWVVKNSLLDYFHPLEDDFSTDIVVVGSGITGALMVHELCSAGLRCCMVDKRSIATGSSIASTALLQYEIDVPLCEMAEIIGEDNAVSAYRASLASIADIEKVLKETGVDADFEKRPSLFYASIPKDIELIEKEYVIRKKHNLPVRLLGKEEIKKLYNIEVPGNALLNRVSAQMDAYKATTGLLLYHMKKDGLEIFTHTGVTECVEMPEGYIIETDRGHKIECKYVIIASGFEAGKFLSREIMDLTSTYALVSHPVDSKDLWPEQCLIWETAEPYLYIRTTRGNRIIVGGEDEKFSDPERRDALLRKKTLVLEKKFRRLFPSIPFKTEMAWCGTFSTTKDGLPFIGNCPDKDRMFFDLGYGGNGITFSMIGAQIICKKLQGIDDERGRIFGYERIEKYWLEHHHHHH,not soluble
12,MDLLFGRRKTPEELLRQNQRALNRAMRELDRERQKLETQEKKIIADIKKMAKQGQMDAVRIMAKDLVRTRRYVRKFVLMRANIQAVSLKIQTLKSNNSMAQAMKGVTKAMGTMNRQLKLPQIQKIMMEFERQAEIMDMKEEMMNDAIDDAMGDEEDEEESDAVVSQVLDELGLSLTDELSNLPSTGGSLSVAAGGKKAEAAASALADADADLEERLKNLRRD,soluble
13,MDLLKKEYTGITYISGPLLFVENAKDLAYGAIVDIKDGTGRVRGGQVIEVSEEYAVIQVFEETTGLDLATTSVSLVEDVARLGVSKEMLGRRFNGIGKPIDGLPPITPEKRLPITGLPLNPVARRKPEQFIQTGISTIDVMNTLVRGQKLPIFSGSGLPANEIAAQIARQATVRPDLSGEGEKEEPFAVVFAAMGITQRELSYFIQEFERTGALSRSVLFLNKADDPTIERILTPRMALTVAEYLAFEHDYHVLVILTDMTNYCEALREIGAAREEIPGRRGYPGYMYTDLATIYERAGVVEGKKGSVTQIPILSMPDDDRTHPIPDLTGYITEGQIQLSRELHRKGIYPPIDPLPSLSRLMNNGVGKGKTREDHKQVSDQLYSAYANGVDIRKLVAIIGEDALTENDRRYLQFADAFERFFINQGQQNRSIEESLQIAWALLSMLPQGELKRISKDHIGKYYGQKLEEIWGAPQALD,soluble
14,MDLPQEIETNMECPVCGSLLYLLTYDTDIPYEGRISIYTYQCKKCMYRKTEVYQEEEKNPVRITLKIESPEDLKTLVYRSRKADIYIPEIEASIDSAEYANGEITTVEGIIYRIGEKLDLLSYDDEEKEAVKEVRKKIDDIINGYFGSFTLIITDESGKSVIESEKAITEKILEHHHHHH,not soluble
15,MDLRDLKTFLHLAESRHFGRSARAMHVSPSTLSRQIQRLEEDLGQPLFVRDNRTVTLTEAGEELRVFAQQTLLQYQQLRHTLDQQGPSLSGELHIFCSVTAAYSHLPPILDRFRAEHPSVEIKLTTGDAADAMEKVVTGEADLAIAGKPETLPGAVAFSMLENLAVVLIAPALPCPVRNQVSVDKPDWSTVPFIMADQGPVRRRIELWFRRHKISNPQIYATVGGHEAMVSMVALGCGVALLPEVVLENSPEPVRNRVMILERSDEKTPFELGVCAQKKRLHEPLIDAFWKILPN,soluble
16,MDLSEDQIRGLPHHELLGHFLQMREEFNEFQTSSAEIEKMMDSELDDLKTQLKKAETRVQQMTTEQIRNKDRQDDSRVQFAQVEEQLRRENSHLHEQCESQRERIRKLEQRNDVLETSERNKEYLASDLGSKLDHAIEKIAMLESELYERQVAAEEMHRLREEQLRTTERPRLIVEPLRNDPEILPDEPSPGPSKEEFKMSSEDVFMEDVQHHEDVRMEETIAKIDEVRIDDNKNIQEKSQRVSTGTGAGACINRIVKDLMTKVERLDSILSTIRVSNNSSNNNSSHLTTTRA,not soluble
17,MDMAKDKGFFKKAKTGKNKSSATPYAEECAIQIPSEIDNEQMHRMPAGGEEDQYLRIKHMSALIKKYGNLPIITTRETRLPDYWLELFTAIDEGDTPKAHALFHLLPQEDIILRALRAVHSEDYLYQLIKYCIQAKHFGFKQLNADLVVTPKTFEILIKDCATTLFNPAKTHFSFGLPSHHAYTQMGSGFCLINKTAMLIKQAELSSVQPPRFVIIGTDVNRDNGLCDILRHSFSHLSICHIDVFDSRVYPQQDFSYINNEFNSEGVDVGKNIHVWHHNDLSYYAVDLSLTSRKSVGVHPALLFALEQFKASIREAKVKGQKIALYLPTGWDSHEDETAYCGKFVKGRMLGKTAAHQFRFNDGDLSYFYESIFTLYNENKDCIDTIYWGLEGGYDRTMYKRELTLLLQVIEKQLLPQDSNSHNMSCLEHHHHHH,not soluble
18,MDMHSGTFNPQDFAWQGLTLTPAAAIHIRELVAKQPGMVGVRLGVKQTGCAGFGYVLDSVSEPDKDDLLFEHDGAKLFVPLQAMPFIDGTEVDFVREGLNQIFKFHNPKAQNECGCGESFGV,not soluble
19,MDNDKNSIIDIVGDGINYEKLKKVEKSLCQIDIITEFMNRSRHLQGKKVNGCIMRIDETKQLLFHVIIDGPVGSIYEGGTFFADINIQPYQNHSLIPRVCFHTFIFHPNLGKYGNWDMRGIQWERRSNLEVLYNFIVEGMRNVKYDIERRNLAQLEDMSQPNISRLAKEDWPKFERTAREFVMKMAGGTINGRKTIFAETKKRRRQDFLDEDIDVIGIS,not soluble
20,MDNEKKSMYEPGVILGGCTLRRQLNDSGEAMVFLAESGNEEKKEVIIKFFKCGYGEDEIKYLDVLTNHEQRRNIVEMLKSFETPEIRLGMVFKRYETDLFGILGDRQRLQPSTIQKYMKGLMEGLQFIHRMDYIHRDIKPENLLIDGETICIADFGETVLSTSDKVVKPGTLPYLTIEHILGYKENTKSMDIWAAACVLGAMFQGSHLFSQNSNLQTIHAIRLLLGNHTKETWPEMDKLPLMQSIELPPVGEKTFSKIENITKEAADLMEQMMKYDPTKRLMASQVLNHEYFKKEASAQAN,not soluble
